The values below come from the supplement of paper PMC9170038.

Data set [1] has as its system MS2 coat protein. Nature of the data set: apparent KD of MS2 coat protein, switch OFF state (with FMN for OFF switches, without FMN for ON switches); designed switch direction (-1 OFF switch, 1 ON switch): -1; higher = weaker reporter binding. The note with it: FMN input: 0 or 200 uM; Eterna round: R93 (includes R88 designs). A digest of the protocol: (§1)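 Illumina sequencing clusters served as templates for on-chip transcription of the designed RNA switches. SNAP-549-labelled MS2 coat protein was then titrated in twofold steps from 0.7 or 1.5 nM to 3 µM, allowing 0.8–1.5 h per step at first and 10–20 min per step later. The buffer held 100 mM Tris-HCl pH 7.5, 80 mM KCl and 4 mM MgCl2, without or with constant ligand. Apparent KD is the median per design of normalised cluster binding-curve fits.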

Data set [2] relates to MS2 coat protein. The data set can be described thus: apparent KD of MS2 coat protein, switch ON state; designed switch direction (-1 OFF switch, 1 ON switch): -1; higher = weaker reporter binding. The note with it: FMN input: 0 or 200 uM; Eterna round: R93 (includes R88 designs). A digest of the protocol:
as §1

As to “AAAACGUGAGGAUAUACAUGAGGAUCACCCAUGUGAAACAGGAAAAACUGAAAGAAAAGUAGAAGGCACGAAAA [Tweaking Eli]”, the “apparent KD of MS2 coat protein” value came to 0.0444 µM in the data set on MS2 coat protein [1] and 0.029 µM in the data set with MS2 coat protein [2].
The matching figures for “AGAAAACAUGAGGAUCACCCAUGUCAGGAUAUCUAAAAGAAAAGAAAAGAAAGAAGAAAGAGAAGGGACAAGAA [Sekhemib-Perenmaat]”: 0.0255 µM and 0.0221 µM.
Take “AAAAUACAUGAGGAUCACCCAUGUGAGGAUAUCGUAAAGAAAGUGAUCAAAAGAAAUACGAGAAGGCACAUAAA [PK3]”: the “apparent KD of MS2 coat protein” value in the data set with MS2 coat protein [1] came to 0.212 µM; in the data set with MS2 coat protein [2], 0.123 µM.
For the sequence “AAAAAGGGAGGAUAUGCAUACACACAAAAAAAAAAAAAGGGACAUGAGGAUCACCCAUGUAGAAGGCCCAAAAA [Dora Explored 5 - Jieux - Exclusion 2]”, the “apparent KD of MS2 coat protein” value in the data set with MS2 coat protein [1] came to 0.0251 µM; in the data set on MS2 coat protein [2], 0.0299 µM.
As for “AAAAAGUGAGGAUAUGUCAAAAGUCACAAAAGUGACAAAAGACAGAAGGCACAUGAGGAUCACCCAUGUGAAAG [Mat - Exaclusion 4 - Eli mod - D53]”, the “apparent KD of MS2 coat protein” value with MS2 coat protein [1] was found to be 0.0376 µM; in the data set with MS2 coat protein [2] it was 0.0289 µM.
With “AAAGGGUCAGGAUAUGUACGAACAACAAAACAAAUAACGAUACAGAAGGGACAUGAGGAUCACCCAUGUAUAAA [May 74]”, the “apparent KD of MS2 coat protein” value with MS2 coat protein [1] came out at 0.0706 µM; with MS2 coat protein [2] it was 0.0558 µM.
As for “AGCAAACAUGAGGAUCACCCAUGUCAGGAUAUGAACGAAAUAAAAUAAAAAUAAAAGUUCAGAAGGGACGAGCA [Mat - Exclusion 1 - Eli mod - D24]”, the entries for the “apparent KD of MS2 coat protein” value with MS2 coat protein [1] and with MS2 coat protein [2] were 0.0435 µM and 0.0323 µM, respectively.
As for “AAGAAGUGAGGAUAUCGAAGACAGACGAAAAGUCUGUCAAACGAGAAGGCACAUGAGGAUCACCCAUGUGAGAA [What have we learned so far? 64% 2]”, the “apparent KD of MS2 coat protein” value in the data set on MS2 coat protein [1] came to 0.0381 µM; in the data set on MS2 coat protein [2], 0.0226 µM.
The matching figures for “AACAGUACAGGAUAUACAUGAGGAUCACCCAUGUGAGAAUUAAGUGGCGUACCACAAAGUAGAAGGGUACUGAA [Mat - Exclusion 3 - JL mod - D6]”: 0.0973 µM and 0.0308 µM.
As for “AAAUGCUGAGGAUAUACAUGAGGAUCACCCAUGUGAAAUAAAAAAUGUGUGUAAGCGUGUAGAAGGCAGCAUAA [Exclusion 3.12 (FMN+ favored)]”, the “apparent KD of MS2 coat protein” value in the data set with MS2 coat protein [1] is 0.0258 µM; in the data set with MS2 coat protein [2], 0.0571 µM.
As for “AUAAUGAGAGGAUAUACAUGAGGAUCACCCAUGUAAUUAAAAAGGAGAGAAACAAUACGUAGAAGGCUCAUUUA [JR_Exc003+Sub601]”, the “apparent KD of MS2 coat protein” value stood at 0.0506 µM in the data set on MS2 coat protein [1] and 0.0216 µM in the data set on MS2 coat protein [2].
Turning to “AGCUAGUCAGGAUAUACGAACAUGUCGCCAGAUGUGAAGGGACAUGAGGAUCACCCAUGUAGAAGGGACUAGCA [salish99-Ex2-23]”, the results for the “apparent KD of MS2 coat protein” value with MS2 coat protein [1] and with MS2 coat protein [2] were 0.198 µM and 0.254 µM, respectively.
For “AACAAGACAGGAUAUACAUGAGGAUCACCCAUGUCACAAUAAAGUAGCGUAACACAAAGUAGAAGGGUCAUGGA [Ruby 8]”, in that order: 0.0504 µM and 0.0415 µM.
Turning to “AGGAUGUCAGGAUAUGCGUAAAGAAUAAAACAAAUAACAACGCAGAAGGGACAUGAGGAUCACCCAUGUUAAGA [May 45]”, the “apparent KD of MS2 coat protein” value in the data set on MS2 coat protein [1] turned out to be 0.086 µM; with MS2 coat protein [2], 0.0423 µM.
Consider “GGGCCACAUGAGGAUCACCCAUGUAAGGAUAUGCUAGGGAGGGAAAAAAUUUCGCCAGGCAGAAGGUACUAAAG [Janelle Amethyst 18 Mod 7 - Jieux - Exclusion 1]”, for which the entries for the “apparent KD of MS2 coat protein” value with MS2 coat protein [1] and with MS2 coat protein [2] were 0.0314 µM and 0.0236 µM, respectively.
The matching figures for “AAAAAGGCAGGAUAUACAAAAAAGAGAAGAGAGGAGGAGGGACAUGAGGAUCACCCAUGUAGAAGGGCCAAAAA [Karl Gunnar Myrdal]”: 0.0325 µM and 0.0315 µM.
The matching figures for “AGCUAGUCAGGAUAUACGAACAUGUCAAAAGACGUGAAGGAACAUGAGGAUCACCCAUGUAGAAGGGACUAGCA [Diamond 19]”: 0.0165 µM and 0.0193 µM.
For the sequence “AGUCAGAGAGGAUAUACAAGGGAAAAAAAAGUUAGAUCCCUACAUGAGGAUCACCCAUGUAGAAGGCUCUGACA [Ex2 Design 152: Sub-opt 16]”, the “apparent KD of MS2 coat protein” value came out at 0.0492 µM in the data set with MS2 coat protein [1] and 0.108 µM in the data set on MS2 coat protein [2].
The matching figures for “UCCUUACAUGAGGAUCACCCAUGUUAGGAUAUCUCGCUUGCGCAAUCACAGCGCAAGCAGAGAAGGGACGCGGG [Ledige]”: 0.0291 µM and 0.0228 µM.
Turning to “AGCUAGUCAGGAUAUACGAACAUGUCAAAAGACGUGAAGGGACAUGAGGAUCACCCAUGUAGAAGGGACUAGCC [salish99-Ex2-17]”, the “apparent KD of MS2 coat protein” value in the data set on MS2 coat protein [1] is 0.145 µM; in the data set with MS2 coat protein [2] it was 0.0332 µM.
With “AGGAAGUGAGGAUAUGCAGCAUAUAGUGGACGCUAUAGCAUGUAGAAGGCACAUGAGGAUCACCCAUGUUUAAA [EX4 Malc#38]”, the results for the “apparent KD of MS2 coat protein” value in the data set on MS2 coat protein [1] and in the data set with MS2 coat protein [2] were 0.0349 µM and 0.0308 µM, respectively.
Take “AAGAAGUGAGGAUAUGUCUGUGCGAAAAAAAAAAAGUGCAGACAGAAGGCACAUGAGGAUCACCCAUGUCAAAA [Florian Witold Znaniecki]”: the “apparent KD of MS2 coat protein” value was 0.039 µM in the data set with MS2 coat protein [1] and 0.0394 µM in the data set on MS2 coat protein [2].
As to “AGUUGGCGAGGAUAUACAUGAGGAUCACCCAUGUGAGAGUAAAAAGUGAGAAAGAAAAGUAGAAGGCGCUAACA [JL Lego Mod 19]”, the “apparent KD of MS2 coat protein” value in the data set with MS2 coat protein [1] was found to be 0.352 µM; with MS2 coat protein [2] it was 0.0488 µM.
The matching figures for “AAGAAGCUAGGAUAUACAUGAGGAUCACCCAUGUAAAAGAAAGAAAAGGGAAAGAAAAGUAGAAGGAGCAAGAA [Menpehtire Ramesses I]”: 0.0356 µM and 0.0287 µM.
Turning to “AAGAAACAUGAGGAUCACCCAUGUAAGGAUAUCUAAAAGAAAAGAAAAGAAAGAAGAAGGAGAAGGUACAAAGG [Sehertawy Intef I]”, the “apparent KD of MS2 coat protein” value was 0.03 µM in the data set with MS2 coat protein [1] and 0.0261 µM in the data set with MS2 coat protein [2].
The matching figures for “AACAAACAUGAGGAUCACCCAUGUAAGGAUAUGCAACAAAAACAAAAAACAAAAAAAAGCAGAAGGUACAACAA [Amethyst 99]”: 0.0288 µM and 0.0256 µM.
The matching figures for “AUUAAGUGAGGAUAUGAGUGAACAACAAAACAAAUAACGACUCAGAAGGCACAUGAGGAUCACCCAUGUAUAAA [May 69]”: 0.0287 µM and 0.0317 µM.
The matching figures for “AAAAAAGCAGGAUAUACGAACAUGUCAAAAGACGUGAAGGGACAUGAGGAUCACCCAUGUAGAAGGGUUAAGAA [JL Stem Breaker 16]”: 0.0368 µM and 0.179 µM.
In the case of “GAAGAACAUGAGGAUCACCCAUGUCAGGAUAUGCACUACGGAAUAAUAAGUAAUGGAAGUAGAAGGGACAAGAA [Ex 1 May 53]”, the “apparent KD of MS2 coat protein” value stood at 0.0264 µM with MS2 coat protein [1] and 0.0262 µM in the data set on MS2 coat protein [2].
The matching figures for “CCAAACGGAGGAUAUACAAAUUAAGGAAAAAAACGCGAAAAACAUGAGGAUCACCCAUGUAGAAGGCCGAAAAA [Ex 2 #2]”: 0.0185 µM and 0.0203 µM.
For “AAAAAAGGAGGAUAUACGAACAUGUCAAAAGACGUGAAGGGACAUGAGGAUCACCCAUGUAGAAGGUCUAAAAA [JL Part Open 35]”, in that order: 0.0341 µM and 0.0523 µM.
As for “AAGAACGCAGGAUAUACUAAAGAAAUGAAAAGAAAUAAAGAACAUGAGGAUCACCCAUGUAGAAGGGCGAAGAA [Merdjefare]”, the “apparent KD of MS2 coat protein” value in the data set with MS2 coat protein [1] stood at 0.0321 µM; in the data set with MS2 coat protein [2] it was 0.0394 µM.
On to “AACAUGUAAGGAUAUCAAAGAAAAGAAAAGAAAGAAAAGAAUGAGAAGGUACAUGAGGAUCACCCAUGUAAGAA [EteRNA is fun!]”, for which the “apparent KD of MS2 coat protein” value in the data set on MS2 coat protein [1] came to 0.0211 µM; in the data set with MS2 coat protein [2], 0.0279 µM.
Take “AAAAAGUGAGGAUAUACAUGAGGAUCACCCAUGUGUAUAAAAAAAUACACAAAAGAAAGUAGAAGGCACUAAAG [Mat - Exclusion 3 - Mayanna mod - D109]”: the “apparent KD of MS2 coat protein” value is 0.0848 µM with MS2 coat protein [1] and 0.0284 µM in the data set on MS2 coat protein [2].
As to “AAAAAACAUGAGGAUCACCCAUGUAAGGAUAUCGAAAAGAAAAGAAAAGAAAGAAGAACGAGAAGGUACAAGAA [Neferirkare Kakai]”, the entries for the “apparent KD of MS2 coat protein” value with MS2 coat protein [1] and with MS2 coat protein [2] were 0.016 µM and 0.0166 µM, respectively.
In the case of “GAAAAGUCAGGAUAUGCAGAAAAAAAAACGAAAAAAAAACUGCAGAAGGGACAUGAGGAUCACCCAUGUUAAAG [Mat - Exclusion 4 - Mayanna - D128]”, the “apparent KD of MS2 coat protein” value was 0.0331 µM in the data set on MS2 coat protein [1] and 0.0509 µM in the data set with MS2 coat protein [2].
Take “AAGAAUUCAGGAUAUACAAGGAAGAAAGAAAAGAAAAGAAAACAUGAGGAUCACCCAUGUAGAAGGGAAUAGAA [EteRNA is fun!]”: the “apparent KD of MS2 coat protein” value was 0.0266 µM with MS2 coat protein [1] and 0.04 µM in the data set with MS2 coat protein [2].
For “AACAGUACAGGAUAUACAUGAGGAUCACCCAUGUGAAAAGAAAGUGGCGUACCACAAAGUAGAAGGGUACUGAA [Mat - Exclusion 3 - JL mod - D29]”, in that order: 0.135 µM and 0.0253 µM.
“AAAAAACAUGAGGAUCACCCAUGUAAGGAUAUGCAAGAAAGAAGAAAGAAAAGAAAAAGCAGAAGGUACAAAAA [Amethyst 71]”: the “apparent KD of MS2 coat protein” value was found to be 0.0344 µM in the data set on MS2 coat protein [1] and 0.0321 µM with MS2 coat protein [2].
